Reference: FireProtDB (doi:10.1111/j.1399-3011.1982.tb00898.x)

Details: Escherichia coli (strain K12), Thermal, DSC, whole UniProt chain shown
[1] = pH 7, 25 °C, potassium phosphate 1 mM, reversible: yes(<50%)
[2] = pH 7, potassium phosphate 1 mM, reversible: yes(<50%)
[3] = pH 9.3, 25 °C, sodium tetraborate 1 mM, reversible: yes(>70%)
[4] = pH 9.3, sodium tetraborate 1 mM, reversible: yes(>70%)

B1: Tryptophan synthase alpha chain wild type, P0A877 (protein)
chain: MERYESLFAQLKERKEGAFVPFVTLGDPGIEQSLKIIDTLIEAGADALELGIPFSDPLADGPTIQNATLRAFAAGVTPAQCFEMLALIRQKHPTIPIGLLMYANLVFNKGIDEFYAQCEKVGVDSVLVADVPVEESAPFRQAALRHNVAPIFICPPNADDDLLRQIASYGRGYTYLLSRAGVTGAENRAALPLNHLVAKLKEYNAAPPLQGFGISAPDQVKAAIDAGAAGAISGSAIVKIIEQHINEPEKMLAALKVFVQPMKAATRS
With B1 the “heat capacity change of unfolding” value [1] was 2.9 kcal/mol/K, the unfolding free energy [1] was 8.4 kcal/mol and the Tm [2] was 62.4 °C. For the same protein, the “heat capacity change of unfolding” value [2] was 2.9 kcal/mol/K, the “heat capacity change of unfolding” value [3] was 2.9 kcal/mol/K and the unfolding free energy [3] was 5.8 kcal/mol. The Tm [4] was 54.3 °C and the “heat capacity change of unfolding” value [4] was 2.9 kcal/mol/K.
